In US20090191645A1, “COMPOUNDS AND METHODS FOR MODULATING INTEGRIN ACTIVITY” (Washington University in St. Louis, priority 2008, published 2009):
“Also recorded” adds a separate entry of the source. Blank lines part the entries; values can stand above or below the molecule they belong to.

How the values were obtained:
αIIbβ3 integrin = biological target: T1, αIIbβ3 integrin (Homo sapiens, UniProt P05106+P08514); assay: LIBS antibody binding to human platelets (flow cytometry); assay type: cell-based; conditions: for LIBS binding to platelets (3 LIBS mAbs): platelets with PGE1 / kept on ice; for D3 LIBS antibody binding to platelets: 100 μM clasp peptide in the presence of RGD
T1 construct: Platelets and megakaryocytes are the only cells to express αIIbβ3 integrin; endogenous in cells; host or cells: washed human platelets from a healthy donor
Protocol: Preparation of Fresh Platelets—Collection of human blood was performed under an approved protocol of the Washington University School of Medicine Human Studies Committee. 30 mL of blood was drawn from a healthy donor into 3% sodium citrate, and centrifuged at 200×g for 10 min. at room temp. to yield platelet-rich plasma (PRP). The PRP was treated with 1 μg/ml prostaglandin E1 (PGE-1) and centrifuged at 500×g for 5 min. The platelet pellet was resuspended in Tyrode's solution (137 mM NaCl, 2.7 mM KCl, 2 mM CaCl2, 1 mM MgCl2, 3.3 mM NaH2PO4, 5.5 mM glucose, 20 mM HEPES, pH 7.4 with 1 mg/ml BSA and 1 μg/ml PGE-1. The platelet suspension was stored on ice for 1 to 48 hr or treated as described below.
(§1) Flow Cytometry—Binding of anti-β3 mAb AP3 and anti-LIBS mAbs LIBS1, LIBS6 and D3 was quantified using a Coulter EPICS flow cytometer. 10^6 cells were washed and resuspended in 100 μl of FACS buffer (1% BSA, 2 mM MgCl2, in PBS) and incubated on ice for 30 minutes. Cells were washed and resuspended in buffer (PBS+2 mM MgCl2 or 1 mM each CaCl2 and MgCl2) along with combinations of 0-1 mM GRGDSP (SEQ ID NO: 19) with 500 μM MnCl2, 100 μM P2483, 100 μM P2484, and 100 μM P2485 or control peptide. Cells were then incubated on ice for 30 minutes. Cells were washed and incubated in 100 μl of buffer (PBS+2 mM MgCl2) containing donkey anti-mouse IgG-FITC at a 1:100 dilution for an additional 30 min. After washing, the cells were diluted to 0.5 ml and analyzed by flow cytometry. Data was analyzed using WinMDI software.
Platelets and megakaryocytes are the only cells to express αIIbβ3 integrin, and thus platelets offer a unique system in which to test the effects of the clasp peptides on β3 integrin activation. They also provide the opportunity to compare the activation response to the clasp peptides of αIIbβ3 vs αvβ3. Several G protein coupled receptors (e.g. those for ADP, thromboxane and thrombin) on platelets can rapidly activate αIIbβ3 via inside-out signaling (2). To eliminate this route of activation platelets were incubated with PGE1, which elevates cyclic AMP levels via Gs, and in some experiments also used apyrase to block activation by leaked ADP (39). In addition, platelets were kept on ice for as long as 24 to 48 hours to ensure metabolic inactivity. While short-term exposure to cold can activate platelets, long term exposure makes platelets refractory to activation (40).

C32 melanoma cells = assay: C32 cell adhesion and spreading on vitronectin; assay type: cell-based, human; conditions: Vn-coated wells
Protocol: Cell Spreading Assay—Spreading of C32 cells on Vn was performed as described (31) in 24-well tissue culture plates coated with 0.5 μg/ml Vn and blocked with 1% BSA/PBS for 2 hrs at room temperature. C32 cells were plated in HBSS with 2 mM CaCl2 and 2 mM MgCl2 in the presence of 2 mM MnSO4, and indicated amounts of GRGDSP (SEQ ID NO: 19), P2483, P2484, or 4N1K. Cells were allowed to spread for 30 minutes at 37° C., after which the cells were fixed, stained, and photographed.
As an initial approach to testing the function of the putative clasp region of β3 integrins, synthetic peptides were used to mimic the α and β sides of the clasp. It was reasoned that αIIbβ3 is likely to be held in the off state more securely than αvβ3, and thus the αIIb clasp sequence was chosen for these experiments (Table 1). To evaluate the effects of the putative clasp peptides on αvβ3 activation in live cells, adhesion and spreading assays using C32 melanoma cells were performed. […] Not until αvβ3 is activated, e.g. via Mn^++ or CD47 stimulation, does αvβ3-dependent spreading occur (35). The assay was performed in Ca^++/Mg^++ which supports integrin activity, and we used Mn^++ activation of αvβ3 as a positive control (6). The putative clasp peptides were incubated with cells added to the Vn-coated wells and after 30 min at 37° cell attachment and spreading were assessed (FIG. 1).

αvβ3 integrin = biological target: T2, αvβ3 integrin (Homo sapiens, UniProt P05106+P06756); assay: LIBS antibody binding to αvβ3 on K562 cells (flow cytometry); assay type: cell-based; conditions: K562 cells expressing αvβ3; for LIBS1, LIBS6 or D3 antibody binding (fluorescence): 1 mM GRGDSP vs LIBS antibody with no RGD peptide; for LIBS1 antibody binding: 100 μM peptide, in the presence of 1 mM RGD peptide, absence of Mn++
T2 construct: Full length cDNA clones of human αv and β3 integrin subunits were provided by Dr. Scott Blystone; expressed in transfected cells; host or cells: human K562 erythroleukemia cells (ATCC CCL-243), stably expressing αvβ3
Protocol: as §1
To more directly monitor changes in integrin conformation, a series of antibodies (mAbs) were used that react with ligand-bound or activated states of β3 integrins. These LIBS mAbs used here recognize epitopes at three different sites within the stalk region of the β3 subunit that are masked in the “off” state and only become accessible when the integrin is “opened up” in the ligand-binding, activated conformation (37). When K562 cells transfected to express αvβ3 integrin were incubated with the LIBS1 or LIBS6 mAbs alone (dotted histograms in FIG. 2), little antibody binding above isotype control mAb or secondary mAb alone was detected. D3 mAb appeared to induce some activation of the integrin since its binding to αvβ3 (FIG. 2, dotted line) was several fold above that of controls. GRGDSP (SEQ ID NO: 19) peptide augments LIBS binding by stabilizing active conformations of the β3 integrin. […] The effect of the clasp peptides on the binding of each LIBS mAb was determined in the presence of 1 mM RGD peptide, but in the absence of Mn^++.

[1] = biological target: wild-type human αvβ3 integrin on cells (human, UniProt P06756 31-1048; P05106 27-788); assay: cell-based or functional assay
[2] = 100 μM clasp peptide in the presence of 100 μM RGD, metabolically inactive human platelets
[3] = 100 μM clasp peptide, 30 min at 37°

T2 sequence (P06756 31-889 limits assumed): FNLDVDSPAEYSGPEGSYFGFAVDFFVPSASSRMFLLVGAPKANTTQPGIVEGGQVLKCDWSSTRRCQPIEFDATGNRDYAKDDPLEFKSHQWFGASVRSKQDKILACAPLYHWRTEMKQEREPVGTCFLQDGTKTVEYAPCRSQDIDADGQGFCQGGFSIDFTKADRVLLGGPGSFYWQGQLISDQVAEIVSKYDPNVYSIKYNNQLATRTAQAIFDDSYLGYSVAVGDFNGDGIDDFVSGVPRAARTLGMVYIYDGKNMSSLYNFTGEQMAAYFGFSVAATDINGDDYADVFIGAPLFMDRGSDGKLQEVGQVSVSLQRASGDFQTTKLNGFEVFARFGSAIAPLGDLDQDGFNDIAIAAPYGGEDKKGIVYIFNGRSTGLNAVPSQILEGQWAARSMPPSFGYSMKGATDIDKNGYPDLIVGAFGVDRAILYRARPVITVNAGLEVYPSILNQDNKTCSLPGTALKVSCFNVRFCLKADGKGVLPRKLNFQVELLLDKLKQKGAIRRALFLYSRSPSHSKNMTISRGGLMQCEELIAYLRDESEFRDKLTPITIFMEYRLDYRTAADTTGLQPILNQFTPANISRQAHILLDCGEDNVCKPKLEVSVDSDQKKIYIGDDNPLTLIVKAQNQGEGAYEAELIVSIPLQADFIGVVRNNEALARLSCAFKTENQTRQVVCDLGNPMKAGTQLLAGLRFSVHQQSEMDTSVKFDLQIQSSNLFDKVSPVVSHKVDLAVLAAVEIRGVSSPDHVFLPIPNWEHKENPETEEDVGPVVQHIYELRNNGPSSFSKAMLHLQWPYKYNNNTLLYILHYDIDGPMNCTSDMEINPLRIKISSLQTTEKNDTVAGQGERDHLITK
T2 sequence (P06756 891-1048 limits assumed): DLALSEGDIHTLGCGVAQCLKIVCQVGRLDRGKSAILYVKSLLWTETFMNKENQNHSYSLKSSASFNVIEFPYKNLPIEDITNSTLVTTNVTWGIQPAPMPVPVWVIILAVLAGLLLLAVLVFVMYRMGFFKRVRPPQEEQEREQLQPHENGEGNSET
T2 sequence (P05106 27-788): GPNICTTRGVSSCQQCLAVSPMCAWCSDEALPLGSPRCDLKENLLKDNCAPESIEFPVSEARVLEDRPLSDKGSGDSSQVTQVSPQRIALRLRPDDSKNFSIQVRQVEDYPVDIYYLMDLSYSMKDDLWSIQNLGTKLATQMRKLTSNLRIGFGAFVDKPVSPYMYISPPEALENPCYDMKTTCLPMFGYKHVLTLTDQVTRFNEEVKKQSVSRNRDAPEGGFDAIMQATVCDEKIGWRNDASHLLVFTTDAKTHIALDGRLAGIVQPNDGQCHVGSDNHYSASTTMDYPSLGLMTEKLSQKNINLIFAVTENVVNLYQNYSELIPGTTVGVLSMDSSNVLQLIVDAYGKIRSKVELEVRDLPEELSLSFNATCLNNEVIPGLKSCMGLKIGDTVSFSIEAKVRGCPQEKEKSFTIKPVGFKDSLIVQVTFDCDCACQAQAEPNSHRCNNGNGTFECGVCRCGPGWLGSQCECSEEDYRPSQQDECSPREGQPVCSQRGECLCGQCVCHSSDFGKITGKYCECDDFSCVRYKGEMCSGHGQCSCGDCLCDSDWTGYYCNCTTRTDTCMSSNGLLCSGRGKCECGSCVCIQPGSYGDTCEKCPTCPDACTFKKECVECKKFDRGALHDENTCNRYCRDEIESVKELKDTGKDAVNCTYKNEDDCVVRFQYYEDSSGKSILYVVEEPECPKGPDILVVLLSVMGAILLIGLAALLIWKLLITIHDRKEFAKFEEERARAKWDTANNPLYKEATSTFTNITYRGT
wild-type human αvβ3 integrin on cells, sequence (P06756 31-1048, chain 1 of 2): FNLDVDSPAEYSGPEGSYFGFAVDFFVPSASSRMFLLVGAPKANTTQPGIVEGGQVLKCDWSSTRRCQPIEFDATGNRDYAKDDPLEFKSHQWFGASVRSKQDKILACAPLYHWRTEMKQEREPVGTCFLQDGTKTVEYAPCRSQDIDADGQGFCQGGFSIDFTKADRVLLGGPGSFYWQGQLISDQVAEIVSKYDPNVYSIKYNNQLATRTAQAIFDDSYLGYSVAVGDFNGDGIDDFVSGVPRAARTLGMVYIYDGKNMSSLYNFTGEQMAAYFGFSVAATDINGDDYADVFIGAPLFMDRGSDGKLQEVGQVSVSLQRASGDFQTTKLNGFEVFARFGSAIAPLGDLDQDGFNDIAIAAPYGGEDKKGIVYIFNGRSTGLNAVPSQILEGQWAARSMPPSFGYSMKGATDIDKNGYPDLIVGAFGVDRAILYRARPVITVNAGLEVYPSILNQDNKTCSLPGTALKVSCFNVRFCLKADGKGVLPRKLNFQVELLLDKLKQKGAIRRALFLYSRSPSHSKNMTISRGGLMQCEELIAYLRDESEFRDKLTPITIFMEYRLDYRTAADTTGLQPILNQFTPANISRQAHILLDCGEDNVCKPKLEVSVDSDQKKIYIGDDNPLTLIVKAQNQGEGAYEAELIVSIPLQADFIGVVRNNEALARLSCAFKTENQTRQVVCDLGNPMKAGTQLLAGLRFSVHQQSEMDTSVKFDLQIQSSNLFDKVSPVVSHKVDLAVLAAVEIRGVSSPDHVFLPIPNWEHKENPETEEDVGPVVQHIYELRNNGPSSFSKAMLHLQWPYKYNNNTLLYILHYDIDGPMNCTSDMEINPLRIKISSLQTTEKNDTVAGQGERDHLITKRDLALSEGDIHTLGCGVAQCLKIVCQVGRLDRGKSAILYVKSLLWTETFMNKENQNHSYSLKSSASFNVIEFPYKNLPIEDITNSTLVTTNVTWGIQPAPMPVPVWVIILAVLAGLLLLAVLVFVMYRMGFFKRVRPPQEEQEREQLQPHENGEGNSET
wild-type human αvβ3 integrin on cells, sequence (P05106 27-788, chain 2 of 2): as the sequence (P05106 27-788) above

Molecule: Nc1ncnc2c1ncn2[C@@H]1O[C@H](COP(=O)(O)OP(=O)(O)O)[C@@H](O)[C@H]1O [ADP]
- LIBS binding to platelets (3 LIBS mAbs) (αIIbβ3 integrin; 50 μM ADP): Neither of these agonists was able to increase LIBS binding

Molecule: [Mn+2] [Mn^++]
- LIBS1 binding shift (αIIbβ3 integrin; 0.5 mM Mn++ added to 100 μM RGD, human platelets): further magnified
- C32 cell adhesion to Vn (C32 melanoma cells; 2 mM MnSO4): increased adhesion
- C32 cell spreading (C32 melanoma cells; 2 mM MnSO4): enhanced spreading
- increase in number of spread cells (C32 melanoma cells; 2 mM MnSO4): ca. 3 fold
- LIBS antibody binding shift (αvβ3 integrin; 0.5 mM Mn++ added to 1 mM GRGDSP): further augmented

Molecule: GRGDSP
- LIBS1 binding to αIIbβ3 (αIIbβ3 integrin; 100 μM RGD, human platelets): sufficient to increase LIBS1 binding
- LIBS6 binding to αIIbβ3 (αIIbβ3 integrin; 100 μM RGD, human platelets): not increased
- C32 cell adhesion (C32 melanoma cells; 0.5 mM GRGDSP): effectively reduced cell adhesion; also recorded: nearly eliminated
- C32 cell spreading (C32 melanoma cells; 0.5 mM GRGDSP): nearly eliminated
- LIBS1, LIBS6 or D3 antibody binding (fluorescence) (αvβ3 integrin): increase in fluorescence
- LIBS1, LIBS6 or D3 antibody binding (fluorescence) (αvβ3 integrin; listed as RGD peptide): increase in D3 binding

Molecule: KRFYVVMWKK (listed as Homo sapiens) [4N1K]
- increase in number of spread cells (C32 melanoma cells; 50 μM 4N1K): ~10 fold
- C32 cell adhesion increased (C32 melanoma cells; 50 μM 4N1K, 30 min at 37°, no additions set at 100%): 400%

Molecule: thrombin receptor activating peptide [TRAP]
- LIBS binding to platelets (3 LIBS mAbs) (αIIbβ3 integrin; 10 μM TRAP): Neither of these agonists was able to increase LIBS binding

Molecule: TTRTDTC [P2483 (β3 integrin clasp peptide, residues 561-567, TTRTDTC)]
- C32 cell spreading on vitronectin [1]: 9 fold

Molecule: YMESRADRK [P2484 (αIIb integrin clasp peptide, residues 313-321, YMESRADRK)]
- C32 cell spreading on vitronectin [1]: 78 fold

Second part, led by results:

- LIBS1 antibody binding (αvβ3 integrin): did not enhance LIBS1 binding
Molecule: KMDASAAVS (listed as Homo sapiens) [control peptide]

- LIBS1 binding to αIIbβ3 (αIIbβ3 integrin; [2]): unable to increase LIBS1 binding
- LIBS1 binding to αIIbβ3 (αIIbβ3 integrin; 100 μM clasp peptide in the presence of 100 μM RGD, metabolically inactive human platelets, listed as β3 clasp peptide): failed to increase LIBS1 binding
- D3 LIBS antibody binding to platelets (αIIbβ3 integrin; human platelets): marginally stimulated D3 binding
- LIBS1 antibody binding (αvβ3 integrin): dramatically increased
Molecule: TTRTDTC (listed as Homo sapiens) [P2483]
- C32 cell adhesion (C32 melanoma cells; [3]): stimulated cell adhesion to an extent comparable to 4N1K
- LIBS1 antibody binding (αvβ3 integrin; listed as 2483): greater than that promoted by RGD plus Mn^++

- LIBS1 binding to αIIbβ3 (αIIbβ3 integrin; [2]): increased LIBS1 binding
- D3 LIBS antibody binding to platelets (αIIbβ3 integrin; human platelets): large rightward shifts
- LIBS1 antibody binding (αvβ3 integrin): dramatically increased
Molecule: YMESRADRK (listed as Homo sapiens) [P2484]
- LIBS1 binding to αIIbβ3 (αIIbβ3 integrin; 100 μM clasp peptide in the presence of 100 μM RGD, metabolically inactive human platelets, listed as αIIb clasp peptide): increased binding well above that with RGD alone
- C32 cell adhesion (C32 melanoma cells; [3]): stimulated cell adhesion to an extent comparable to 4N1K
- LIBS1 antibody binding (αvβ3 integrin; listed as 2484): greater than that promoted by RGD plus Mn^++
